According to patent US20230090502:

Molecular target: Uncleaved SARS-CoV-2 3CLpro (N-terminal 6xHIS-tag followed by TEV-protease cleavage site)

B1: TEV-protease (New England Biolabs, includes a HIS-tag) (protein)
chain: GESLFKGPRDYNPISSTICHLTNESDGHTTSLYGIGFGPFIITNKHLFRRNNGTLLVQSLHGVFKVKNTTTLQQHLIDGRDMIIIRMPKDFPPFPQKLKFREPQREERICLVTTNFQTKSMSSMVSDTSCTFPSSDGIFWKHWIQTKDGQCGSPLVSTRDGFIVGIHSASNFTNTNNYFTSVPKNFMELLTNQEAQQWVSGWRLNADSVLWGGHKVFMSKPEEPFQPVKEATQLMNELVYSQ
- cleavage of the HIS-tag, SDS-PAGE: Cleavage of the 3CLpro was successful
